Data reported in the nanobody polyreactivity screen of Harvey et al. (2022).

Assay: yeast display, Sf9 membrane polyspecificity reagent, FACS + sequencing; frameworks hold sequencing errors
Outline: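 Synthetic nanobody libraries on Saccharomyces cerevisiae BJ5465 were galactose-induced for 36–48 hours, stained 1 hour at 4 °C with 10% biotinylated, detergent-solubilized Sf9 membrane reagent and enriched on streptavidin microbeads. FACS then separated cells into low and high (top ~1%) gates by anti-HA (expression) and streptavidin (reagent binding) fluorescence. Genes were colony-PCR amplified, MiSeq 2 × 250 sequenced and CDR-length filtered. A clone's polyreactivity label is that of its gate of origin.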

| Sequence | polyreactivity (PSR sort gate) |
| --- | --- |
| QVQLVESGGGLVQAGGSLRLSCAASGSTLVIYAMGWYRQAPGKERELVAAINFSDGSTSYADSVKGRFTISRDNAKNTVYLQMNSLKPEDTAVFYWGQGTQVTVSS | low polyreactivity |
| QVQLVESGGGLVQAGGSLRLSCADSGRIIYKNAMGWYRQAPGKERELVAAITSSGGSTYYADSVKGRFTISRDNAKNTVYLQMNSLTPVDTAVYYCAAYAYVRFGKLNYWGQGTQVTVSS | low polyreactivity |
| QVQLVESGGGIVQAGGSLRLSSAASGRTFYVYTMGWYRQAPGKERELVAAITSGGSTNYADSVKGRFKISRDNAKNTVYLQMNSLKPEDTAVYYCAARFSTVFKRYYYWGQGTQLTVSS | high polyreactivity |
| QVQLVESGGGLVQAGGSLRLSCAASGSIFVYYAMGWYRQAPGKERELVATISSDVSTYYSDSVKGRFTISRDNAKNTVYVQMNRLKPEDTAVDYCAATVSFDWAYSFSLDLEDDYWGQGTQVTVSS | low polyreactivity |
| QVQLVESGGGLVQAGGSLRLSCAASGRIYWLYAMGWYRQAPGKERELVAAITGIGGSTYYADSVKVRFTISRDNAKNTVYLQMNSLKPEDTAVYYCAARNPASTAWMNYWGQGTQVNVSS | low polyreactivity |
| QVQLVESGGGLVQAGGSLRLSCAASGRTFKYYALGWYRQAPGKERELVAAISNGGRTNYADSVKGRFTISRDNAKNTVYLQMNSLKPEDTAFYYCAKRTFYFSDYDYWGQGTQVTVSS | high polyreactivity |
| QVQLVESGGGLVQAGGSLRLSCAASGRTLVLYAMGWYRQAPGKERELVAAITWSGDSTYYADSVKGRFTISRDNAKNTVYLQMNSLKPEDTAVYYCAADKSYRRVYYWGQGTQVTVSS | low polyreactivity |
| QVQLVESGGGLVQAGGSLRLSCAASGSTFYPYAMGWYRQAPGKERELVADITNSGSTYYADSVKGRFTISRDNAKNTVYLQMNSLKPEDTAVYYCAARVYSVADYYYWGQGTQVTVSS | low polyreactivity |
| QVQLVESGGGLVQAGGSLRLSCAASGRIFDWNVMGWYRQAPGKERELVAVINDSTGTTYYADSVKGRFTISRDNAKNTVYLQMNSLKPEDTAVYYCSADWSVFTYFYGYDYWGQGTQVTVSS | low polyreactivity |
| QVQLVESGGGLVQAGGSLRLSCAASGFTFTNNAMGWYRQAPGKERELVAAIRRSGTNTYYADSVKGRFTISRDNAKNPVYLQMNSLKPEDTAVYYCATDGYEYTDYGSSGYDYWGQGTQVTVSS | low polyreactivity |
| QVQLVESGGGLVQAGGSLRLSCAASGITFIYYAMGSYRQAPGKERELVAAISKSGGRTYYADSVKGRFTISRDNAKNTVYLQMNSLKPEDSAVYYCNKLVGDDTSLYDYWGQGTQVTVSS | high polyreactivity |
| QVQLVESGGGLVQAGGSLRLSCAASGSTFPRNAMGWYRQAPGKERELVAAISYSGGRTYYADSVKGRFTISRDNAKNTVYLQMNSLKPEDTAVYYCAAQPYSHVRGKSYGYWGQGTQVTVSS | high polyreactivity |
| QVQHVESGGGLVQAGGSLRLSCAASGFIFVSYTMGWYRHAPGKEWELVATITVSDGSTYYADSVKGRFTISRDNAKNTVYLQMNSLKPEDTAVYYCNKDKVVVRYDYWGQGTQVTVSS | low polyreactivity |
| QVQLVESGGGLVQAGGSLRLSCAASGSIFRPYAMGWYRQAPGTERELVAAITWSGGRTYYADSVKGRFTISRDTAKNTVYLQMNSLKPDDTAVYYCAADDSEGFDYWGQGTQVTVSS | high polyreactivity |
| QVQLVESGGGLVQAGGSLRLSCAASGSIFAYAMGWYRQAPGKERELVAGISSSGGRTYYADSVKGRFTISRDNAKNTVYLQMNRLKPEDTAVYYCAAKRWGLYKGYNCGQGTQVTVSS | high polyreactivity |
| QVQLVESGGGLVQAGGSLRLSCAASGSTFTSYVMGWYRQAPGKERELVAAISSSGTRTYYADSVKGRFTISRDNAKNTVYLQMNSLKPEDTSVYYCAARGGAPYRIFKDDYWGQATQVTVSS | high polyreactivity |
| QVQLVESGGGLVQAGGSLRLICAASGSIIGANAMGWSRQAPGKERELGAAITDNTSTTFYADSVKGRFTISRDIAKNTVYLQMNSLKPEDTAVYYCNADRAVVLSTPLWGEYDYWGQGTQVTVSS | low polyreactivity |
| QVQLVESGGGLVQAGGSLRLSCAASGRILYLYTMGWYRQAPGKERELVAAISRGGSTYYADSVKGRFTISRDNAKNTVYLQMNSLKPEDTAVYSCAADARGYQFNYWGQGTQVTVSS | low polyreactivity |
| QVQLVESGGGLVQAGGSLRLSCADSGRIITVYDMGWYRQAPGKEREYVAAISDTDSSTYADSVKGRFTISRDNAKNTVYLQMNSLKPEDTAVYYCNAVGDIFGRVSTEYEYWGQGTQVTVSA | low polyreactivity |
| QVQLVESGGGLVQAGGSLRLSCAASGRTFVYYAMGWYRQAPGKEREFVAAISRSGGRTSYADSVKGRFTISRDNAKNTVYLQMNSLKPEDTAVYYCAAEKRTQPTSREYYWVQGTQVTVSS | high polyreactivity |
| QVQLVESGGGLVQAGGSLRLSCAASGRIFYYYTMGWYRQAPGKERELVAGISRSGDRTYYADSVKGRFTISRDNGKNTVYLQMNSLKPEDTAVYYFAALYGYVHRKAFYYWGQGTQVTVSS | high polyreactivity |
| QVQLVESGGGLVQAGGSLRLSCAASGSTCWSYAMGWYRQAPGKERELVATITRAGTTNYADSVKGRFTISRDNAKNTVSLQRNSLNPEDTAVYYCAKRIFRWPYQGSYSFIPFGYWGQGTQVTVSS | high polyreactivity |

| Sequence | polyreactivity (PSR sort gate) |
| --- | --- |
| QVQLVESGGGLVQAGGSLRLSCAASGFIFELYAMGWYRQAPGKERDLVAVISYDGGSTYYADSVKGRFTISRDNAKNTVYLQMNSLKPEDTAVYYCNTYAGLVSPSDLYDYWGQGTQVTVSS | low polyreactivity |
| QVQLVESGGGLLKAGGSLRLTCAASGRIFSSYDMGWYRQAPGKERELVAAISNSGGNTYYADSVKGRFTISRDNAKNTVYLQMNSLKPEDTAVYYCAAVAFWAIFDFYWYYPYEYDYWGQGTQVTVSS | high polyreactivity |
| QVQLVESGGGLVQAGGSLRLSCAASGRIFQAYAMGWYRQAPGKERELVASISYRGGITYYADSVKGRFTISRDNAKNTVYLQMNSLKPEDTEVYYCAAGRKGSMYYWGQGTQVTVSW | high polyreactivity |
| QVQLVESGGGLVQAGGSLRLSCAASGFTFPSNAMGWYRQAPGKERELYAAISSTDSTNYADSVKGRFTISRDNAKNTFYLQMNSLKPEDTAVYYCAKRYPRYRYNTRGNDYWGQGSQVTVSS | low polyreactivity |
| QVQLVESGGGLVQAGGSLRLSCAASGRIFANYAMGWYRQAPGKERELVAAISRSGGSTSYADSVKGRFTISRDNAKNTVYLQMNSLKPEDTAVYYCAATRSRYQPVKYGYWGQGTQVTVSS | high polyreactivity |
| QVQLVESGGGLVQAGGSLRLSCAASGIILPQNAMGWYRQAPGKERELVAAISKSGGRTYYADSVKGRFTISRDNAKNTVYLQMNSLKPEDTAVYYCAAVVRRAPEFDYWGQGTQVTVSS | high polyreactivity |
| QVQLVESGGGLVQAGGSLRLSCAASGRTFYGNAMGWYRQAPGKERELVAAITTGGGNTYYADSVKGRFTISRDNAKNTVYLQMNSLKPEDTAVYYCAKCYRAYYWGFNYWGQGTQVTVSS | high polyreactivity |
| QVQLVESGGGLVQAGGSLRLSCAASGSTFAVYAMGWYRQEPGKERELVATITGSGGSTYYADSVKGRFTISRDNAKNTVYLQMNSLKPEDTAVYYCAAEVVAWSLYEDFKTYDYWGQGTQVTVSS | low polyreactivity |
| QVQLVESGGGLVQAGGSLRLSCAASGGIFNYYAMGWYRQAPGKDRELVAAISASGGSTYYADSVKGRFTISRDYAKNTVYLQMNSLKPEDTAVYYCASGLPYGYGYDYWGQGTQVTVSS | low polyreactivity |
| QVQLVESGGGLVQAGGSLRLSCAASGRIFRDNAMGWYRQAPGKEREFVARITISTGTTYYADSVKGRFTISRDNAKNTVYLQMNSLKPEDTAVYYCAALYTVSYLTSPVSYRYDYWGQGTQVTVSS | low polyreactivity |
| QVQLVESGGGLVQAGGSLRLSCAASGRIFGRYAMGWYRQAPGKERELVAVISARGARTYYADSVKGRFTISRDNAKHTVYLQMNSLKPEDTAVYYCAVDQYATDDYWGQGTQVTVSS | high polyreactivity |
| QVQLQESGGGLVQAGVSLRLSCAASGNINDADIMGCYRQAPGKERELVTSITDGGSTNYADSVKGRFTISRDNAKNTVYLQMNSLKPEDTAVYYCAAIAYPVIPTSFDYNSDYSYWGQGTQVTVSS | low polyreactivity |
| QVQLVESGGGLVQAGGSLRLSCAASGSTFGGYAMGWYRQAPGKERELVAGISSGTSTYYADSVKGRFTISRDNAKNTVYLQMNSLKPEDTAVYYCAKYSYYRKLGYWGQGTQVTVSS | high polyreactivity |
| QVLLQESGGGLVQAVGSLRLGCAASGTISPAYDIGRNHLAPGREREFVAAMTYGTNSYYSDSVKGRFTMSRDNAKNTVFLKMTSLKTEDTAVFYFSATGGYNCAHDYWGQGTQVTVSS | low polyreactivity |
| QVQLVESGGGLVQAAGSLRLSCAASGFIFIYNAMGWYRQAPGKERELVAAITGSDGGTFYADSVKGRFTFSRDYAKNTVYLQINSLKPEDTAVYYCHADNGSRQSRDGYESWGQGTQVTVSS | low polyreactivity |
| QVQLVESGGGLVQAGGSLRLSCAASGRIFAGYTMGWYRPAPGKERELVAAIRSSGRTHYADSVKGRFTISRDNAKNTVYLQMYSLKPEDTAVYYCAARWTYTFAYRFDYWGQGTQVTVSS | high polyreactivity |
| QVQLVDSGGGLVQAGGSLRLSCAASGRTFGRKAMGWYRQAPGERELVAVISRGGSTYYADSVKGRFTISRDNAKNTVYLQMNSLKPEDTAVYYCNADTVYTRTAPYDYCGQGTQVTVSS | low polyreactivity |
| QVQLQESGGGLVQAGGSLRLSCAASGSISHYIFMGWYRQAPGKEREFVAGIGYGGTTNYADSVKGRFTISRDNAKNTVYLQMNSLKPEDTAMYYCAAREATEFYLYYWGQGTQVTVRS | low polyreactivity |
| QVQLVESGGGLVQAGGSLRLSCAASGSIFYHYAMGWYRQAPGKDRELVADITQSGGTTDYADSVKGRFTISRYNAKNTVYLQMNSLKPEDTAVYYCAADGDTTSPTYYIFWSGEFDYWGQGNQVTVSS | low polyreactivity |
| QVQLEESGGGLVQAGGSLRLSCAASGFIFGLNAMGWYRQAPGKERELVAGIRSGSSTNYADSVKGRFTISRDNAKNTVYLQMNSLKPEDTAVYYCATEGYWVYGFDDEYWGQGTQVTVSS | low polyreactivity |
| QVQLVESGGGLVQAGGSLRLSCAASGRIFSRNAMGWYRQAPGKERELVAAISRSGTSTYYADSVKGRFTISRDNAKNTVYLQMNSLKPEDTAVYYCAADYPAVISIRRYDYWGQGTQVTVSS | low polyreactivity |
